In patent US20120184713:

Legend:
[1] = tested on: T1, Peptide4, OPN-ASARM derivative with the other two Ser residues changed to Ala
T1 sequence: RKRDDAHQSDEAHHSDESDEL

[2] = tested on: T2, Peptide1, OPN-ASARM peptide (human Osteopontin 115Asp to 132Leu with N-terminal Arg-Lys-Arg)
T2 sequence: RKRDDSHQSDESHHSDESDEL

[3] = tested on: T3, Peptide3, OPN-ASARM derivative with the three G-CK consensus Ser residues changed to Ala
T3 sequence: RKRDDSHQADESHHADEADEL

Casein Kinase I (NEB)
in vitro kinase assay with peptide substrate [1]: had reduced, but similar levels of activity on both OPN-ASARM^3S-A and OPN-ASARM^2S-A | in vitro kinase assay with peptide substrate [2]: CKI also phosphorylated OPN-ASARM | in vitro kinase assay with peptide substrate [3]: had reduced, but similar levels of activity on both OPN-ASARM^3S-A and OPN-ASARM^2S-A
